Drawing on US20240343814A1, this text covers Kd, koff and kon for 17 molecules.

Experiment [1] deals with Recombinant human his-tagged IGF 1R extracellular domain protein (human) (UniProt P08069). Description: SPR, captured IgG, IGF-1R ECD-his analyte, dissociation pH 7.4. Background: SPR reads the build-up and loss of mass on a sensor chip optically.
For experiment [2] the target is unchanged. The experiment is described as follows: SPR, captured IgG, IGF-1R ECD-his analyte, dissociation pH 6.

B1: VRDN-02501 (antibody, V domains shown)
VH: EVQLVQSGGGLVKPGGSLRLSCAASHFTFSSFAMHWVRQAPGKGLEWISVIDTRGATYYADSVKGRFTISRDNAKNSLYLQMNSLRAEDTAVYYCARLGNFYYGMDVWGQGTTVTVSS
VL: EIVLTQSPGTLSVSPGERATLSCRASQSIGSSLHWYQQKPGQAPRLLIKYASQSLSGIPDRFSGSGSGTDFTLTISRLEPEDFAVYYCHQSSRLPHTFGQGTKVEIK
For orientation: Kd means a measure of binding affinity in units of concentration. A word on the koff: it is the rate constant with which the complex falls apart. A word on the kon: it is the second-order rate constant of association. As for B1, in experiment [1], the Kd was found to be 0.911 nM, the koff came out at 0.00015 s⁻¹ and the association rate constant (kon) stood at 165000 M⁻¹ s⁻¹. Besides, in experiment [2], the Kd was 0.0259 nM, the koff amounted to 1e-06 s⁻¹ and the kon stood at 38600 M⁻¹ s⁻¹.

B2: VRDN-02518 (antibody, V domains shown)
VH: EVQLVQSGGGLVKPGGSLRLSCAASGFTFSSFAMHWVRQAPGKGLEWISVIDTRGATYYADSVKGRFTISRDNAKNSLYLQMNSLRAEDTAVYYCARHGNFYYGMDVWGQGTTVTVSS
VL: EIVLTQSPGTLSVSPGERATLSCRASQSIGSSLHWYQQKPGQAPRLLIKYASQSLSGIPDRFSGSGSGTDFTLTISRLEPEDFAVYYCHQSSRLPHTFGQGTKVEIK
Turning to B2, in experiment [1], the Kd amounted to 0.549 nM, the koff came out at 6.31e-05 s⁻¹ and the kon is 115000 M⁻¹ s⁻¹. For the same molecule, in experiment [2], the Kd is 0.0385 nM, the koff turned out to be 1e-06 s⁻¹ and the kon was found to be 26000 M⁻¹ s⁻¹.

B3: VRDN-02564 (antibody, V domains shown)
VH: EVQLVQSGGGLVKPGGSLRLSCAASGFTFSSFAMHWVRQAPGKGLEWISVIHTRGATYYADSVKGRFTISRDNAKNSLYLQMNSLRAEDTAVYYCARLGNFYYGHDVWGQGTTVTVSS
VL: EIVLTQSPGTLSVSPGERATLSCRASQSIGSSLHWYQQKPGQAPRLLIKYASQSLSGIPDRFSGSGSGTDFTLTISRLEPEDFAVYYCHQSSRLPHTFGQGTKVEIK
In the case of B3, in experiment [2], the Kd worked out at 1.48 nM, the koff is 0.000507 s⁻¹ and the kon stood at 344000 M⁻¹ s⁻¹.

B4: VRDN-02554 (antibody, V domains shown)
VH: EVQLVQSGGGLVKPGGSLRLSCAASGFTFSSFAMHWVRQAPGKGLEWISVIHTRGATYYADSVKGRFTISRDNAKNSLYLQMNSLRAEDTAVYYCARLGNFYYGMDVWGQGTTVTVSS
VL: EIVLTQSPGTLSVSPGERATLSCRASQSIGSSLHWYQQKPGQAPRLLIKHASQSLSGIPDRFSGSGSGTDFTLTISRLEPEDFAVYYCHQSSRLPHTFGQGTKVEIK
For the molecule B4, in experiment [2], the Kd amounted to 1.53 nM, the dissociation rate constant (koff) is 0.000152 s⁻¹ and the kon was determined as 99500 M⁻¹ s⁻¹.

B5: VRDN-02570 (antibody, V domains shown)
VH: EVQLVQSGGGLVKPGGSLRLSCAASGFTFSSFHMHWVRQAPGKGLEWISVIDTRGATYYADSVKGRFTISRDNAKNSLYLQMNSLRAEDTAVYYCARLGNFYYGHDVWGQGTTVTVSS
VL: EIVLTQSPGTLSVSPGERATLSCRASQSIGSSLHWYQQKPGQAPRLLIKHASQSLSGIPDRFSGSGSGTDFTLTISRLEPEDFAVYYCHQSSRLPHTFGQGTKVEIK
For the molecule B5, in experiment [2], the Kd turned out to be 1.76 nM, the koff was determined as 0.000376 s⁻¹ and the kon came to 214000 M⁻¹ s⁻¹.

B6: VRDN-02562 (antibody, V domains shown)
VH: EVQLVQSGGGLVKPGGSLRLSCAASGFTFSSFAMHWVRQAPGKGLEWISVIHTRGATYYADSVKGRFTISRDNAKNSLYLQMNSLRAEDTAVYYCHRLGNFYYGMDVWGQGTTVTVSS
VL: EIVLTQSPGTLSVSPGERATLSCRASQSIGSSLHWYQQKPGQAPRLLIKYASQSLSGIPDRFSGSGSGTDFTLTISRLEPEDFAVYYCHQSSRLPHTFGQGTKVEIK
For B6, in experiment [2], the Kd was found to be 1.34 nM, the dissociation rate constant (koff) is 0.00018 s⁻¹ and the kon was determined as 135000 M⁻¹ s⁻¹.

B7: VRDN-02569 (antibody, V domains shown)
VH: EVQLVQSGGGLVKPGGSLRLSCAASGFTFSSFHMHWVRQAPGKGLEWISVIHTRGATYYADSVKGRFTISRDNAKNSLYLQMNSLRAEDTAVYYCARLGNFYYGMDVWGQGTTVTVSS
VL: EIVLTQSPGTLSVSPGERATLSCRASQSIGSSLHWYQQKPGQAPRLLIKHASQSLSGIPDRFSGSGSGTDFTLTISRLEPEDFAVYYCHQSSRLPHTFGQGTKVEIK
For the molecule B7, in experiment [2], the Kd came out at 1.51 nM, the koff was determined as 0.000516 s⁻¹ and the kon was 342000 M⁻¹ s⁻¹.

B8: VRDN-02538 (antibody, V domains shown)
VH: EVQLVQSGGGLVKPGGSLRLSCAASGFTFSSFAMHWVRQAPGKGLEWISVIDTRGATYYADSVKGRFTISRDNAKNSLYLQMNSLRAEDTAVYYCARLGNFYYGMDVWGQGTTVTVSS
VL: EIVLTQSPGTLSVSPGERATLSCRASQSIGSSLHWYQQKPGQAPRLLIHYASQSLSGIPDRFSGSGSGTDFTLTISRLEPEDFAVYYCHQSSRLPHTFGQGTKVEIK
As to B8, in experiment [2], the Kd was found to be 0.0463 nM, the koff was 1e-06 s⁻¹ and the kon is 21600 M⁻¹ s⁻¹.

B9: VRDN-02553 (antibody, V domains shown)
VH: EVQLVQSGGGLVKPGGSLRLSCAASGFTFSSFHMHWVRQAPGKGLEWISVIDTRGATYYADSVKGRFTISRDNAKNSLYLQMNSLRAEDTAVYYCARLGNFYYGMDVWGQGTTVTVSS
VL: EIVLTQSPGTLSVSPGERATLSCRASQSIGSSLHWYQQKPGQAPRLLIKHASQSLSGIPDRFSGSGSGTDFTLTISRLEPEDFAVYYCHQSSRLPHTFGQGTKVEIK
B9: in experiment [2], the Kd was 1.56 nM, the dissociation rate constant (koff) turned out to be 0.000534 s⁻¹ and the kon was determined as 341000 M⁻¹ s⁻¹.

B10: VRDN-02561 (antibody, V domains shown)
VH: EVQLVQSGGGLVKPGGSLRLSCAASGFTFSSFHMHWVRQAPGKGLEWISVIDTRGATYYADSVKGRFTISRDNAKNSLYLQMNSLRAEDTAVYYCARLGNFYYGHDVWGQGTTVTVSS
VL: EIVLTQSPGTLSVSPGERATLSCRASQSIGSSLHWYQQKPGQAPRLLIKYASQSLSGIPDRFSGSGSGTDFTLTISRLEPEDFAVYYCHQSSRLPHTFGQGTKVEIK
In the case of B10, in experiment [2], the Kd amounted to 1.64 nM, the off-rate constant (koff) is 0.000539 s⁻¹ and the kon came out at 329000 M⁻¹ s⁻¹.

B11: VRDN-02517 (antibody, V domains shown)
VH: EVQLVQSGGGLVKPGGSLRLSCAASGFTFSSFAMHWVRQAPGKGLEWISVIDTRGATYYADSVKGRFTISRDNAKNSLYLQMNSLRAEDTAVYYCAHLGNFYYGMDVWGQGTTVTVSS
VL: EIVLTQSPGTLSVSPGERATLSCRASQSIGSSLHWYQQKPGQAPRLLIKYASQSLSGIPDRFSGSGSGTDFTLTISRLEPEDFAVYYCHQSSRLPHTFGQGTKVEIK
Turning to B11, in experiment [1], the Kd was found to be 10.7 nM, the koff was 0.00264 s⁻¹ and the association rate constant (kon) is 247000 M⁻¹ s⁻¹. In experiment [2], the Kd amounted to 5.07 nM, the koff amounted to 0.000265 s⁻¹ and the kon is 52300 M⁻¹ s⁻¹.

B12: VRDN-02563 (antibody, V domains shown)
VH: EVQLVQSGGGLVKPGGSLRLSCAASGFTFSSFAMHWVRQAPGKGLEWISVIHTRGATYYADSVKGRFTISRDNAKNSLYLQMNSLRAEDTAVYYCARLGNFYYHMDVWGQGTTVTVSS
VL: EIVLTQSPGTLSVSPGERATLSCRASQSIGSSLHWYQQKPGQAPRLLIKYASQSLSGIPDRFSGSGSGTDFTLTISRLEPEDFAVYYCHQSSRLPHTFGQGTKVEIK
Take B12: in experiment [2], the Kd was 3.46 nM, the koff turned out to be 0.000353 s⁻¹ and the kon worked out at 102000 M⁻¹ s⁻¹.

B13: VRDN-02555 (antibody, V domains shown)
VH: EVQLVQSGGGLVKPGGSLRLSCAASGFTFSSFAMHWVRQAPGKGLEWISVIDTRGATYYADSVKGRFTISRDNAKNSLYLQMNSLRAEDTAVYYCHRLGNFYYGMDVWGQGTTVTVSS
VL: EIVLTQSPGTLSVSPGERATLSCRASQSIGSSLHWYQQKPGQAPRLLIKHASQSLSGIPDRFSGSGSGTDFTLTISRLEPEDFAVYYCHQSSRLPHTFGQGTKVEIK
Consider B13, for which, in experiment [2], the Kd amounted to 0.851 nM, the koff stood at 0.000418 s⁻¹ and the kon turned out to be 491000 M⁻¹ s⁻¹.

B14: VRDN-02568 (antibody, V domains shown)
VH: EVQLVQSGGGLVKPGGSLRLSCAASGFTFSSFHMHWVRQAPGKGLEWISVIHTRGATYYADSVKGRFTISRDNAKNSLYLQMNSLRAEDTAVYYCARLGNFYYGHDVWGQGTTVTVSS
VL: EIVLTQSPGTLSVSPGERATLSCRASQSIGSSLHWYQQKPGQAPRLLIKYASQSLSGIPDRFSGSGSGTDFTLTISRLEPEDFAVYYCHQSSRLPHTFGQGTKVEIK
For the molecule B14, in experiment [2], the Kd amounted to 29.9 nM, the koff was determined as 0.000129 s⁻¹ and the kon came to 4320 M⁻¹ s⁻¹.

B15: VRDN-02516 (antibody, V domains shown)
VH: EVQLVQSGGGLVKPGGSLRLSCAASGFTFSSFAMHWVRQAPGKGLEWISVIDTRGATYYADSVKGRFTISRDNAKNSLYLQMNSLRAEDTAVYYCHRLGNFYYGMDVWGQGTTVTVSS
VL: EIVLTQSPGTLSVSPGERATLSCRASQSIGSSLHWYQQKPGQAPRLLIKYASQSLSGIPDRFSGSGSGTDFTLTISRLEPEDFAVYYCHQSSRLPHTFGQGTKVEIK
For B15, in experiment [1], the Kd came out at 2.35 nM, the koff was determined as 0.000418 s⁻¹ and the kon came out at 178000 M⁻¹ s⁻¹. Further, in experiment [2], the Kd turned out to be 16.8 nM, the koff was found to be 0.00196 s⁻¹ and the kon turned out to be 117000 M⁻¹ s⁻¹.

B16: VRDN-02558 (antibody, V domains shown)
VH: EVQLVQSGGGLVKPGGSLRLSCAASGFTFSSFHMHWVRQAPGKGLEWISVIHTRGATYYADSVKGRFTISRDNAKNSLYLQMNSLRAEDTAVYYCARLGNFYYGMDVWGQGTTVTVSS
VL: EIVLTQSPGTLSVSPGERATLSCRASQSIGSSLHWYQQKPGQAPRLLIKYASQSLSGIPDRFSGSGSGTDFTLTISRLEPEDFAVYYCHQSSRLPHTFGQGTKVEIK
Consider B16, for which, in experiment [2], the Kd was 3.15 nM, the koff amounted to 0.00017 s⁻¹ and the kon was 53900 M⁻¹ s⁻¹.

B17: VRDN-02571 (antibody, V domains shown)
VH: EVQLVQSGGGLVKPGGSLRLSCAASGFTFSSFAMHWVRQAPGKGLEWISVIHTRGATYYADSVKGRFTISRDNAKNSLYLQMNSLRAEDTAVYYCARLGNFYYGHDVWGQGTTVTVSS
VL: EIVLTQSPGTLSVSPGERATLSCRASQSIGSSLHWYQQKPGQAPRLLIKHASQSLSGIPDRFSGSGSGTDFTLTISRLEPEDFAVYYCHQSSRLPHTFGQGTKVEIK
Take B17: in experiment [2], the Kd came to 2.15 nM, the koff was 0.000344 s⁻¹ and the kon is 160000 M⁻¹ s⁻¹.
